First the molecules themselves.
T1: EsCas13d, nuclease-dead (Eubacterium siraeum, UniProt B0MS50, R295A;H300A;R849A;H854A)
T1 sequence: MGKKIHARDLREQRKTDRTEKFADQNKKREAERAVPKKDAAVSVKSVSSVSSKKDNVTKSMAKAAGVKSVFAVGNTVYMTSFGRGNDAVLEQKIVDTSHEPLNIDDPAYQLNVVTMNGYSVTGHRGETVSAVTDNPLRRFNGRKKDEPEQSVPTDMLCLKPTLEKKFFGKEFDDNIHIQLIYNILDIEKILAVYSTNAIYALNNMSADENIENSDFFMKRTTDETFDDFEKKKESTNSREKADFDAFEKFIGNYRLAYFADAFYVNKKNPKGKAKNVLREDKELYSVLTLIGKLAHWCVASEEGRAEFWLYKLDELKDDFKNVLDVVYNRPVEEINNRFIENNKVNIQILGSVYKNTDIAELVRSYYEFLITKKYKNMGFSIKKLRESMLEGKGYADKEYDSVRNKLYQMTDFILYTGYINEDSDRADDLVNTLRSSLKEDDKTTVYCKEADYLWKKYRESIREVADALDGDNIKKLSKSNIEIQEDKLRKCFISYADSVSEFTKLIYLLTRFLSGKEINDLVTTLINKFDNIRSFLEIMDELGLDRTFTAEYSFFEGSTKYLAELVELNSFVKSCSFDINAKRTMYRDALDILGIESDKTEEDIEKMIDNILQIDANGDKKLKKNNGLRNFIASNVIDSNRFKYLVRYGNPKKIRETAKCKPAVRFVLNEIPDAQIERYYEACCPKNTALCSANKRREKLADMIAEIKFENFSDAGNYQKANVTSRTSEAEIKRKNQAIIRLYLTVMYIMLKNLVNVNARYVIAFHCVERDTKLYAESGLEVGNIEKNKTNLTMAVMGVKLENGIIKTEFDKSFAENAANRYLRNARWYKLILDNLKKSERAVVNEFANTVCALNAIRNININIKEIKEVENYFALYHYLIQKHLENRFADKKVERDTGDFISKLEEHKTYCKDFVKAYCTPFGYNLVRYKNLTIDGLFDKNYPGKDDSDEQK

B1: target 1 insA 3' of 7,insU 3' of 6 (mixed)
RNA 1: CACCCGUGCAAAAAUGCAGGGGUCUAAAACUGAGCGGAUAACCUCUCUAUGG
RNA 2: GGGAAUGGAUCCACAUCUACGAAUUCGUACCAUAGAGAGGUUAUCACUGCUCACCGAGAUCGGAAGAGCACACGU
B2: target 1 insU 3' of 12,insU 3' of 2 (mixed)
RNA 1: B1 RNA 1
RNA 2: B1 RNA 2 with A43U, U44A, C45U, A46C, U48G, G49C, C50U, U51C, C52U
B3: target 1 C6U,A9U (mixed)
RNA 1: B1 RNA 1
RNA 2: GGGAAUGGAUCCACAUCUACGAAUUCGUACCAUAGAGAGGUUUUCUGCUCACCGAGAUCGGAAGAGCACACGU
B4: target 1 insC 3' of 20,insA 3' of 3 (mixed)
RNA 1: B1 RNA 1
RNA 2: GGGAAUGGAUCCACAUCUACGAAUUCGUACCACUAGAGAGGUUAUCCGCUACACCGAGAUCGGAAGAGCACACGU
B5: target 1 G5U,A9C (mixed)
RNA 1: B1 RNA 1
RNA 2: B3 RNA 2 with U43C, U46C, G47U
B6: target 1 insU 3' of 18,insA 3' of 8 (mixed)
RNA 1: B1 RNA 1
RNA 2: B4 RNA 2 with C33U, U34A, A35U, C46A, G48C, C49G, U50C, A51U
B7: target 1 C4U,G12A (mixed)
RNA 1: B1 RNA 1
RNA 2: B3 RNA 2 with G40A, U43A, U46C, C48U
B8: target 1 C7U,A14G (mixed)
RNA 1: B1 RNA 1
RNA 2: B3 RNA 2 with A38G, U43A, C45U, U46C
B9: target 1 insC 3' of 18,insU 3' of 15 (mixed)
RNA 1: B1 RNA 1
RNA 2: GGGAAUGGAUCCACAUCUACGAAUUCGUACCAUACGAGUAGGUUAUCCGCUCACCGAGAUCGGAAGAGCACACGU
B10: target 1 insA 3' of 15,insU 3' of 9 (mixed)
RNA 1: B1 RNA 1
RNA 2: B1 RNA 2 with G39A, U41G, A43U, U44A, C45U, A46U, U48C
B11: target 1 insG 3' of 19,insG 3' of 16 (mixed)
RNA 1: B1 RNA 1
RNA 2: B9 RNA 2 with A34G, C35A, U39G
B12: target 1 C4A,C6G (mixed)
RNA 1: B1 RNA 1
RNA 2: B3 RNA 2 with U43A, U46G, C48A
B13: target 1 G5C,U10A (mixed)
RNA 1: B1 RNA 1
RNA 2: B3 RNA 2 with U42A, U43A, U46C, G47C
B14: target 1 insA 3' of 17,insC 3' of 10 (mixed)
RNA 1: B1 RNA 1
RNA 2: B9 RNA 2 with C35G, G36A, U39A, A40G, G42U, U44C
B15: target 1 insU 3' of 12,insC 3' of 11 (mixed)
RNA 1: B1 RNA 1
RNA 2: B1 RNA 2 with A43C, C45A, A46U, U48C
B16: target 1 insC 3' of 22,insU 3' of 18 (mixed)
RNA 1: B1 RNA 1
RNA 2: B9 RNA 2 with A32C, U33A, A34U, C35A, G36U, A37G, G38A, U39G
B17: target 1 insA 3' of 22,insG 3' of 2 (mixed)
RNA 1: B1 RNA 1
RNA 2: B4 RNA 2 with C31A, A32C, C33A, A51C, C52G
B18: target 1 insU 3' of 9,insG 3' of 3 (mixed)
RNA 1: B1 RNA 1
RNA 2: B1 RNA 2 with C45U, A46C, U48G, G49C, C50U, U51G
B19: target 1 C2G,C4G (mixed)
RNA 1: B1 RNA 1
RNA 2: B3 RNA 2 with U43A, U46C, C48G, C50G
B20: target 1 insA 3' of 21,insC 3' of 10 (mixed)
RNA 1: B1 RNA 1
RNA 2: B9 RNA 2 with U33A, A34U, C35A, U39A, A40G, G42U, U44C
B21: target 1 del7,del8 (mixed)
RNA 1: B1 RNA 1
RNA 2: GGGAAUGGAUCCACAUCUACGAAUUCGUACCAUAGAGAGGUUACGCUCACCGAGAUCGGAAGAGCACACGU
B22: target 1 G5C,G17C (mixed)
RNA 1: B1 RNA 1
RNA 2: B3 RNA 2 with G35C, U43A, U46C, G47C
B23: target 1 insG 3' of 21,insA 3' of 21 (mixed)
RNA 1: B1 RNA 1
RNA 2: B9 RNA 2 with A32G, U33A, C35U, G36A, A37G, G38A, U39G
B24: target 1 U8G,U10A (mixed)
RNA 1: B1 RNA 1
RNA 2: B3 RNA 2 with U42A, U43A, U44G, U46C
B25: target 1 del3,del9 (mixed)
RNA 1: B1 RNA 1
RNA 2: B21 RNA 2 with A43U, G45C, C46G, U47C
B26: target 1 insG 3' of 8,insG 3' of 6 (mixed)
RNA 1: B1 RNA 1
RNA 2: B1 RNA 2 with C45G, A46C, U48G
B27: target 1 G15A,C22U (mixed)
RNA 1: B1 RNA 1
RNA 2: B3 RNA 2 with C30U, G37A, U43A, U46C
B28: target 1 insU 3' of 20,insC 3' of 14 (mixed)
RNA 1: B1 RNA 1
RNA 2: B9 RNA 2 with A34U, C35A, U39A, A40C
B29: target 1 G12U,A16G (mixed)
RNA 1: B1 RNA 1
RNA 2: B3 RNA 2 with A36G, G40U, U43A, U46C
B30: target 1 insU 3' of 22,insG 3' of 18 (mixed)
RNA 1: B1 RNA 1
RNA 2: B9 RNA 2 with C31U, A32C, U33A, A34U, C35A, A37G, G38A, U39G
B31: target 1 insU 3' of 13,insU 3' of 12 (mixed)
RNA 1: B1 RNA 1
RNA 2: B1 RNA 2 with G40U, U41G, A43U, C45A, A46U, U48C

Numbering of substitutions follows the chain as printed. In names and notes the source's numbering stands.

This data set deals with T1, EsCas13d, nuclease-dead. Nature of the data set: crRNA (strand 1, pre-loaded); Mg2+; 40 mM Tris-HCl pH 7.5, 150 mM NaCl, 6 mM MgCl2, 1 mM DTT, 0.1% Tween-20, 0.2 mg/ml BSA; 25 C; 10 min per concentration, then washed. To be noted: tags: His6-TwinStrep-SUMO cleaved; N-terminal SNAP kept (SNAP-Surface 488); label: 3' end held by stalled T7 RNA polymerase.
A word on the Kd: it is the equilibrium constant for the complex coming apart. In turn, B1 showed a Kd of 7.6 ± 0.5 nM. For B2 the value was 8.3 ± 0.8 nM. In the case of B3 it was 8.2 ± 0.4 nM; in that of B4, 8.76 ± 0.32 nM; in that of B5, 60 ± 6 nM. In the case of B6 it was 55 ± 4 nM; in that of B7, 23.7 ± 3 nM. In the case of B8, binding was put at a Kd of 16.5 ± 1.6 nM. For B9 the value was 82 ± 33 nM; for B10, 24.4 ± 3.1 nM; for B11, 97 ± 16 nM.

B12 came in with a Kd of 5.4 ± 0.4 nM. For B13 the value was 11.8 ± 0.6 nM; for B14, 27 ± 6 nM. As for B15, binding was characterised by a dissociation constant (Kd) of 25 ± 4 nM. For B16 the value was 38 ± 9 nM. For B17 the value was 12.2 ± 0.9 nM; for B18, 12.7 ± 0.6 nM. On to B19, for which the Kd amounted to 7 ± 0.4 nM. In the case of B20 it was 57 ± 8 nM; in that of B21, 10.6 ± 0.7 nM. In the case of B22 it was 48 ± 6 nM; in that of B23, 27.3 ± 3.5 nM. In the case of B24 it was 19.7 ± 1.2 nM. For the molecule B25, binding was put at a Kd of 40 ± 5 nM. For B26 the value was 7.05 ± 0.26 nM; for B27, 17.7 ± 2.4 nM. For B28 the value was 51 ± 16 nM; for B29, 43 ± 5 nM. For B30 the value was 84 ± 17 nM; for B31, 11.8 ± 1.3 nM.

The values above are taken from article PMC10786891, “Massively parallel profiling of RNA-targeting CRISPR-Cas13d”.
